Tests used:
Fyn = Fyn (UniProt P06241); experiment: phosphorylation enrichment, bacterial display (enrichment ratio); higher = better substrate or ligand; peptides without Tyr show the background
EPHB2 = EPHB2 (UniProt P29323); experiment: as above
Fes = Fes (UniProt P07332); experiment: as above
Fer (mouse) = experiment: as above
FGFR3 = FGFR3 (UniProt P22607); experiment: as above
AncSZ = experiment: as above
FGFR1 = FGFR1 (UniProt P11362); experiment: as above
Hck = Hck (UniProt P08631); experiment: as above
c-Src = experiment: as above
EPHB1 = EPHB1 (UniProt P54762); experiment: as above
Sequence of EPHB1 (P54762 whole entry, looked up): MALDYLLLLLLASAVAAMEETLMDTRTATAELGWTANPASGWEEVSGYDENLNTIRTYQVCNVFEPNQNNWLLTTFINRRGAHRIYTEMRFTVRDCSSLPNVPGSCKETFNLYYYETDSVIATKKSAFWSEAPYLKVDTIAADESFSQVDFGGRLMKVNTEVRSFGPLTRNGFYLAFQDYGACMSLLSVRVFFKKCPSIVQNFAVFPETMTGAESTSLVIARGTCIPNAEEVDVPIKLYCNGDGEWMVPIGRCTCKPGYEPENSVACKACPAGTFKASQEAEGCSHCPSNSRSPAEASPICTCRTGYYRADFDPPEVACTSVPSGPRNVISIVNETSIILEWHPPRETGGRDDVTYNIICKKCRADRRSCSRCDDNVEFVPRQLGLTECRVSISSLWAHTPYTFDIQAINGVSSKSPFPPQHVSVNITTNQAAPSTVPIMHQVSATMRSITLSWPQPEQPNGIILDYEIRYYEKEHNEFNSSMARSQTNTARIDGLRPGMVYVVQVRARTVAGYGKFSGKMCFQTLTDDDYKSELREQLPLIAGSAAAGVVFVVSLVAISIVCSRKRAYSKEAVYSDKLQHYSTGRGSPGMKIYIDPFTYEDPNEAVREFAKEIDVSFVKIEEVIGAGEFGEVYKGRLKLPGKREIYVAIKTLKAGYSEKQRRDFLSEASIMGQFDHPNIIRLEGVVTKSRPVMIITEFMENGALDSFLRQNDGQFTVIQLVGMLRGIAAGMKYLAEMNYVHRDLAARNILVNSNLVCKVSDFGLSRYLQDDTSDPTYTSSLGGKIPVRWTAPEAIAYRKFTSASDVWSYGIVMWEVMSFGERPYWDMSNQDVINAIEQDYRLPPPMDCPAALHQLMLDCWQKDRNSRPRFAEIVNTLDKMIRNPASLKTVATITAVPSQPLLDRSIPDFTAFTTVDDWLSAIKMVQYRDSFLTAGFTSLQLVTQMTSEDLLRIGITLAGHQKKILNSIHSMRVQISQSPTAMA

Jak2 = Jak2 (UniProt O60674); experiment: as above
c-Abl (mouse) = experiment: as above
MERTK = MERTK (UniProt Q12866); experiment: as above
Grb2 SH2 = Grb2 SH2 (UniProt P62993); experiment: SH2 binding enrichment of the phosphorylated peptide, bacterial display (enrichment ratio); higher = better substrate or ligand; peptides without Tyr show the background
Sequence of Grb2 SH2 (P62993 whole entry, looked up): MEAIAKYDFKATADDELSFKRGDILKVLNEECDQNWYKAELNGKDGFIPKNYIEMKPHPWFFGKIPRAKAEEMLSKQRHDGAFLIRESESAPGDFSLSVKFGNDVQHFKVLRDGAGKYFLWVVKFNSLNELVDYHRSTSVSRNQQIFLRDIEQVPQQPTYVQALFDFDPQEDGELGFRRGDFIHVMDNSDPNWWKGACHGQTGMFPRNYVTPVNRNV

c-Src SH2 = experiment: as above
SHP2-C SH2 = experiment: as above
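Throughout, for SH2 binding enrichment of the phosphorylated peptide, bacterial display: peptide library displayed on the E. coli surface as eCPX fusions, selected cells deep-sequenced, score is each peptide's frequency after selection divided by its frequency in the input.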
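Throughout, for phosphorylation enrichment, bacterial display: 11-residue human phosphosite peptides and single-mutation variants displayed on the E. coli surface, counted by deep sequencing, each peptide's frequency after selection divided by its frequency in the unselected input library; frequency after pTyr selection over input frequency; kinase dosed for 20-30% of maximal phosphorylation in three min.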

Sequence of Fes (P07332 whole entry, looked up): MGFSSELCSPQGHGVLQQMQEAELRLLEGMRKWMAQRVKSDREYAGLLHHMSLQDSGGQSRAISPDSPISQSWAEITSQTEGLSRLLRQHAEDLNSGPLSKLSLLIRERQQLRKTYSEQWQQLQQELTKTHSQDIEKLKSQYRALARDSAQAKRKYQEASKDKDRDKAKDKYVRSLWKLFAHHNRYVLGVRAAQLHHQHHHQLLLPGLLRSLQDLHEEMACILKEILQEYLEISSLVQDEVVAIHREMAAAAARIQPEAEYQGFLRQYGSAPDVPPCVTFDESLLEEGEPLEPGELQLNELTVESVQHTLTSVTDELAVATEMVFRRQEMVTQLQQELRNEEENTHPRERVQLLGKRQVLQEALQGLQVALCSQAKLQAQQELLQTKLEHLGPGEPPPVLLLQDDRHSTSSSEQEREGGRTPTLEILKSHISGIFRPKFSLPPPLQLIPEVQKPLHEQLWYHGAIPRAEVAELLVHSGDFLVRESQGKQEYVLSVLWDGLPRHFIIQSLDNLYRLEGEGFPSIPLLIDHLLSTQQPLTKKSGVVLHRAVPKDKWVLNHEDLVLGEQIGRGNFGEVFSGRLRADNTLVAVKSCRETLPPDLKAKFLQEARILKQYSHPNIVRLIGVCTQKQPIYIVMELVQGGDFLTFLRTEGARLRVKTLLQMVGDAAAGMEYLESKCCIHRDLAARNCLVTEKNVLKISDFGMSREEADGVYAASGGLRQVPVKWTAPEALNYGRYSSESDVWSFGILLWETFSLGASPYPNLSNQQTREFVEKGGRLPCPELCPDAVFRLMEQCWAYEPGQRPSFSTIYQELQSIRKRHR
Sequence of FGFR1 (P11362 whole entry, looked up): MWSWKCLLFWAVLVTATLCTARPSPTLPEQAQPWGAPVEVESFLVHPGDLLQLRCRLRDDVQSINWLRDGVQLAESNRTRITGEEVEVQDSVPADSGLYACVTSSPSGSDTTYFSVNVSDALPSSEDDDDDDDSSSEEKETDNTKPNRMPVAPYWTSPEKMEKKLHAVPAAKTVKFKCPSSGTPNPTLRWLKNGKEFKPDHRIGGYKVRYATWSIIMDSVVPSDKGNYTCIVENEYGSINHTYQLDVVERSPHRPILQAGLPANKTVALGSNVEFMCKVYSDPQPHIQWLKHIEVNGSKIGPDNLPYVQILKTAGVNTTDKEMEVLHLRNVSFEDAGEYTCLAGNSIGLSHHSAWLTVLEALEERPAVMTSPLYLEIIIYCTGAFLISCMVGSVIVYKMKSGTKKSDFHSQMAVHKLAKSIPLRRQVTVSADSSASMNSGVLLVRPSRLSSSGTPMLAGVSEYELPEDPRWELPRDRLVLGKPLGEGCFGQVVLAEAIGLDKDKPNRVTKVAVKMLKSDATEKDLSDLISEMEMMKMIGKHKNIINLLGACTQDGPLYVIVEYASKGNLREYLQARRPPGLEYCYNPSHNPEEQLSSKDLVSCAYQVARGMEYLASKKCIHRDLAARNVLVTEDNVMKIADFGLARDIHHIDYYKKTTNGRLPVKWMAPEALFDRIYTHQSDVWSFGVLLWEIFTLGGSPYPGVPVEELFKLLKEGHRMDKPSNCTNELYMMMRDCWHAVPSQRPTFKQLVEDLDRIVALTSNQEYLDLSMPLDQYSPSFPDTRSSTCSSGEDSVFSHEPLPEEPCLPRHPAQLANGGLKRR
Sequence of FGFR3 (P22607 whole entry, looked up): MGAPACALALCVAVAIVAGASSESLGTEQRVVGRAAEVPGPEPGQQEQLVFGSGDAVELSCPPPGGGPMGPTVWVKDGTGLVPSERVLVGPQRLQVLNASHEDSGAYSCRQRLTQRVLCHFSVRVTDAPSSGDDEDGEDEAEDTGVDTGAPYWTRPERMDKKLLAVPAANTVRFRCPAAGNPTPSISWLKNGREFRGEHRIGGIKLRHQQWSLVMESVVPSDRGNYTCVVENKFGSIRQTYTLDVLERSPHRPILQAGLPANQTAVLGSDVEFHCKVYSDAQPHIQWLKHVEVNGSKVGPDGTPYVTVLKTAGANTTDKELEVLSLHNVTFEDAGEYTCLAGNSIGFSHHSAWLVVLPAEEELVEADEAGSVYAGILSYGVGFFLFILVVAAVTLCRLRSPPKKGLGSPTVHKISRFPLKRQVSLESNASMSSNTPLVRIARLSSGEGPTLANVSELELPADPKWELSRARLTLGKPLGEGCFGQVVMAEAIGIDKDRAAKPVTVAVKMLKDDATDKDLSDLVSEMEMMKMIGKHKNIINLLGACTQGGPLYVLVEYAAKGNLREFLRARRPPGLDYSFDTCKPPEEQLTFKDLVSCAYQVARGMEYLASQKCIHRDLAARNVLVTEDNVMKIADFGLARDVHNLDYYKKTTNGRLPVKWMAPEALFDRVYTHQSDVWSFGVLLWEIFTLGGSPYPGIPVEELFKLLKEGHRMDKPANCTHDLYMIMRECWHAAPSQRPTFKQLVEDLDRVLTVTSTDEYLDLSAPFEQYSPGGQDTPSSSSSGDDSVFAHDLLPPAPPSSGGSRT
Sequence of EPHB2 (P29323 whole entry, looked up): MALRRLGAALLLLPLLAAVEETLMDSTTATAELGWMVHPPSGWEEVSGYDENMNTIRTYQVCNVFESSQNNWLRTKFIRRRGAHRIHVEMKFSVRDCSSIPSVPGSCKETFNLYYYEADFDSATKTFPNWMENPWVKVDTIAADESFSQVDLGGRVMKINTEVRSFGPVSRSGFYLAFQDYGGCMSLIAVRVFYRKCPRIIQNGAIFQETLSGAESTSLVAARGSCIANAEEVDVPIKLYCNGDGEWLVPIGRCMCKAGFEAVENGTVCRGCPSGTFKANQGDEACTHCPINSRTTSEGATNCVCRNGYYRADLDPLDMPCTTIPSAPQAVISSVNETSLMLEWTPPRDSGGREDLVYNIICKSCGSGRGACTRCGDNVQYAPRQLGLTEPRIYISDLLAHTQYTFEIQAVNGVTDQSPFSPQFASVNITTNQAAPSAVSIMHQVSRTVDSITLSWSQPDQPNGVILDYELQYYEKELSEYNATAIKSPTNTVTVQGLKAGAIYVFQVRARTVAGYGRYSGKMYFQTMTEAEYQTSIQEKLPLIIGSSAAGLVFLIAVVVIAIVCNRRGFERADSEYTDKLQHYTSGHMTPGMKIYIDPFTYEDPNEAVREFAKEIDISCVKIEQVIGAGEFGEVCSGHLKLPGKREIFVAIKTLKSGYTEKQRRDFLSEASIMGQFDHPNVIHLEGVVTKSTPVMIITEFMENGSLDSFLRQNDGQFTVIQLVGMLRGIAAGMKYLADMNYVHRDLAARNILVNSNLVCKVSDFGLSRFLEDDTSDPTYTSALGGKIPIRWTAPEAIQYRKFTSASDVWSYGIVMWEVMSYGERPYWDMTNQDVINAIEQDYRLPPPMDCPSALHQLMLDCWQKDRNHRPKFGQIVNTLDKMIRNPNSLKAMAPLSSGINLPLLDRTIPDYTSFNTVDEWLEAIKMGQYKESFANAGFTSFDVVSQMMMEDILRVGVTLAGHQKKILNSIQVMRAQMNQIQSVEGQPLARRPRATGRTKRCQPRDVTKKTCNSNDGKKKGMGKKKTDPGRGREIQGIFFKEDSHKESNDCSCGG

| Sequence | phosphorylation enrichment (Fyn) | phosphorylation enrichment (EPHB2) | phosphorylation enrichment (Fes) | phosphorylation enrichment (Fer (mouse)) | phosphorylation enrichment (FGFR3) | phosphorylation enrichment (AncSZ) | phosphorylation enrichment (FGFR1) | phosphorylation enrichment (Hck) | phosphorylation enrichment (c-Src) | phosphorylation enrichment (EPHB1) | phosphorylation enrichment (Jak2) | phosphorylation enrichment (c-Abl (mouse)) | phosphorylation enrichment (MERTK) | SH2 binding enrichment (Grb2 SH2) | SH2 binding enrichment (c-Src SH2) | SH2 binding enrichment (SHP2-C SH2) |
| --- | --- | --- | --- | --- | --- | --- | --- | --- | --- | --- | --- | --- | --- | --- | --- | --- |
| FLGRNYLETLM [DUS3L_Y610_D609N_YF] | 0.454 | 0.412 | 0.701 | 0.433 | 0.567 | 0.679 | 0.448 | 0.33 | 0.292 | 0.515 | 0.63 | 0.522 | 0.322 | 1.02 | 0.605 | 1.09 |
| DYTEAYNPKIK [CLK1_Y305] | 0.456 | 0.453 | 0.913 | 0.358 | 0.592 | 1.02 | 0.624 | 0.596 | 0.483 | 0.422 | 0.641 | 0.678 | 0.419 | 0.813 | 1.43 | 0.584 |
| CTTIHYNHMCN [TP53_Y234_Y236H] | 0.455 | 0.456 | 0.796 | 0.369 | 0.506 | 0.692 | 0.432 | 0.414 | 0.422 | 0.445 | 0.688 | 0.574 | 0.476 | 1.22 | 1.7 | 1.24 |
| DPGVSYCTREE [PDHA1_Y301_R302C] | 0.606 | 0.749 | 1.12 | 0.481 | 1.12 | 1.12 | 0.576 | 0.688 | 0.449 | 0.643 | 1.1 | 0.714 | 0.451 | 1.08 | 0.581 | 0.968 |
| TLGPFYPSLLF [CRYAA_Y18_R21L] | 0.535 | 0.541 | 1.03 | 0.544 | 1.09 | 0.865 | 0.646 | 0.51 | 0.455 | 0.687 | 0.776 | 0.667 | 0.452 | 0.588 | 0.366 | 0.524 |
| NSRFTCKLEVK [USH2A_Y3747_Y3747C_YF] | 0.378 | 0.618 | 1.66 | 0.533 | 1 | 1.45 | 0.563 | 0.508 | 0.504 | 0.629 | 1.79 | 1.48 | 0.449 | 0.768 | 0.395 | 0.612 |
| IEEGTYGVVFR [CDK11B_Y449_YF] | 8.86 | 7.66 | 1.48 | 6.28 | 0.961 | 1.41 | 0.548 | 7.46 | 5.94 | 2.76 | 1.38 | 1.2 | 3.13 | 0.722 | 0.349 | 0.467 |
| ILKPDYQPLAV [HYDIN_Y1072_I1077V] | 0.48 | 0.42 | 0.828 | 0.387 | 0.667 | 0.817 | 0.475 | 0.456 | 0.418 | 0.409 | 0.617 | 0.73 | 0.448 | 0.731 | 0.509 | 0.8 |
| SPQAHYRLSAF [ADAMTS9_Y100_S96P] | 0.425 | 0.552 | 0.659 | 0.436 | 0.427 | 0.532 | 0.4 | 0.37 | 0.503 | 0.531 | 0.584 | 0.597 | 0.521 | 0.971 | 0.481 | 0.688 |
| ETRWNYHFEVV [GCNT3_Y267_K266N] | 0.449 | 0.496 | 1.65 | 0.568 | 0.893 | 1.38 | 0.563 | 0.439 | 0.433 | 0.971 | 1.23 | 0.904 | 0.398 | 0.761 | 0.592 | 0.646 |
| LIPIKYKAMKK [MYD88_Y257] | 0.489 | 0.384 | 0.96 | 0.405 | 0.92 | 0.388 | 0.755 | 0.342 | 0.302 | 0.55 | 0.297 | 0.325 | 0.413 | 0.908 | 0.602 | 0.974 |
| LFDHIYTTQSD [RET_Y928] | 7.45 | 2 | 3.19 | 6.22 | 3.56 | 2.46 | 2.9 | 5.93 | 4.92 | 1.28 | 1.81 | 0.821 | 1.96 | 0.925 | 0.583 | 0.796 |
| TQIGQYGNGLK [MORC2_Y100] | 0.352 | 0.258 | 0.432 | 0.387 | 0.345 | 0.475 | 0.434 | 0.421 | 0.272 | 0.29 | 0.358 | 0.339 | 0.316 | 0.991 | 0.509 | 0.661 |
| HQEPVCSVAFS [TBL1X_Y509_Y509C] | 0.658 | 0.654 | 2.01 | 0.874 | 1.1 | 1.07 | 1.12 | 0.69 | 0.794 | 0.804 | 1.17 | 1.09 | 0.791 | 1.12 | 0.646 | 0.591 |
| FSDQVYRQRRK [TH_Y230] | 0.615 | 0.663 | 0.787 | 0.551 | 0.568 | 0.853 | 0.474 | 0.493 | 0.774 | 0.557 | 0.658 | 0.735 | 0.649 | 0.634 | 0.421 | 0.446 |
| MHLRQYELLGG [GNAS_Y391] | 0.464 | 0.453 | 0.869 | 0.507 | 0.705 | 0.663 | 0.558 | 0.506 | 0.516 | 0.75 | 0.634 | 0.541 | 0.773 | 0.868 | 7.91 | 0.689 |
| PQGVGYPPQQQ [EP300_Y2219] | 0.573 | 0.619 | 1.17 | 0.46 | 0.871 | 0.962 | 0.897 | 0.612 | 0.579 | 0.44 | 0.915 | 0.655 | 0.619 | 0.92 | 0.428 | 0.685 |
| YMRGMYFRMKD [PLA2G6_Y541] | 0.416 | 0.523 | 0.947 | 0.423 | 0.589 | 0.924 | 0.462 | 0.44 | 0.384 | 0.42 | 1.16 | 0.657 | 0.439 | 1.59 | 1.3 | 1.5 |
| RSSGSYGGGGQ [HNRNPA1_Y341_P340S] | 0.539 | 0.606 | 0.532 | 0.438 | 0.485 | 0.492 | 0.536 | 0.423 | 0.366 | 1.5 | 0.354 | 0.527 | 0.415 | 0.777 | 0.457 | 0.68 |
| FGGTVYHSPVS [PRC1_Y511] | 0.588 | 0.418 | 0.687 | 0.434 | 0.525 | 0.894 | 0.473 | 0.851 | 0.771 | 0.535 | 0.555 | 3.96 | 0.444 | 0.851 | 1.72 | 2.81 |
| FPPTHYIRRVP [SLC4A11_Y820_YF] | 0.473 | 0.53 | 0.87 | 0.747 | 0.468 | 0.953 | 0.437 | 0.965 | 0.475 | 0.529 | 0.755 | 0.71 | 0.522 | 0.644 | 0.374 | 0.746 |
| YEEDSYSHVMA [FDPS_Y388_I391V] | 0.775 | 0.65 | 1.17 | 1.64 | 1.27 | 1.87 | 1.22 | 0.606 | 0.587 | 0.59 | 0.944 | 0.696 | 0.464 | 0.772 | 2.64 | 0.69 |
| RFVFFYSFLLK [PTEN_Y178_YF] | 0.623 | 0.502 | 1.65 | 0.612 | 0.9 | 1.44 | 0.731 | 0.509 | 1.05 | 0.748 | 1.64 | 1.45 | 0.539 | 1.45 | 0.552 | 1.43 |
| LDAGEYCVPRG [BEX1_Y43] | 1.26 | 3.87 | 2.01 | 1.47 | 1.73 | 8.78 | 1.32 | 1.57 | 0.816 | 3.38 | 1.05 | 3.62 | 0.866 | 0.844 | 0.453 | 0.715 |
| SFGENYDNSKS [MAN1B1_Y60] | 0.438 | 0.461 | 0.958 | 0.444 | 0.548 | 0.766 | 0.452 | 0.408 | 0.464 | 0.434 | 0.89 | 0.833 | 0.567 | 0.765 | 0.75 | 0.571 |
| DVMDLYKTLRG [NR3C1_Y30_F29L] | 0.437 | 0.535 | 0.776 | 0.381 | 0.861 | 0.773 | 0.585 | 0.904 | 0.421 | 0.483 | 0.517 | 0.521 | 0.431 | 0.724 | 0.738 | 0.789 |
| FDRREYSRFEK [ITGB7_Y758_YF] | 0.331 | 0.519 | 0.666 | 0.392 | 0.526 | 0.602 | 0.452 | 0.454 | 0.411 | 0.415 | 0.577 | 0.596 | 0.47 | 0.793 | 0.513 | 0.633 |
| HEKKAYAFCGT [RPS6KA3_Y226_S227A] | 0.54 | 0.46 | 0.887 | 0.46 | 0.581 | 0.654 | 0.751 | 0.63 | 0.498 | 0.561 | 0.516 | 0.649 | 0.458 | 1.04 | 0.721 | 0.888 |
| ILGRTYYVNHE [NEDD4_Y627] | 0.368 | 0.539 | 0.941 | 0.507 | 0.682 | 0.928 | 0.485 | 0.632 | 0.68 | 0.607 | 0.705 | 0.725 | 0.368 | 6.67 | 1.41 | 2.73 |
